How the values were obtained:
Conditions in all cases: both partners purified
[1] = target: T1, human hemoglobin (bought powder, gel-filtered, for in vitro assays) (human, UniProt P69905 1-142; P68871 1-147); test: SPR
[2] = target: T1, human hemoglobin (bought powder, …); test: SPR; remark: listed apart in the source
[3] = target: human hemoglobin purified from donor blood (carboxyhemoglobin form, for crystallography) (human, UniProt P69905 1-142; P68871 1-147); test: crystal structure
[4] = target: T2, β-chain of human hemoglobin (in the Hb tetramer of the crystal) (human, UniProt P68871 1-147); test: crystal structure
T2 construct: also called β-chain of Hb; chain ß; source: purified from human blood of a single healthy donor, as part of Hb
T2 sequence (P68871 whole entry): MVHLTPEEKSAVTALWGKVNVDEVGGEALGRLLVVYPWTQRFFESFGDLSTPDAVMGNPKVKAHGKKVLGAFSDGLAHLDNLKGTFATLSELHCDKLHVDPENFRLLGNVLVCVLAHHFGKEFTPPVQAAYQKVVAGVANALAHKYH

T1 sequence (P69905 whole entry, chain 1 of 2): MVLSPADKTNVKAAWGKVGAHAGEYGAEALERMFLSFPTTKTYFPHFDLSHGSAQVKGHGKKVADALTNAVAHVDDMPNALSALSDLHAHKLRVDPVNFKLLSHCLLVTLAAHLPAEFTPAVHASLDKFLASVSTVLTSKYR
T1 sequence (P68871 whole entry, chain 2 of 2): as the sequence (P68871 whole entry) above
Chain of human hemoglobin purified from donor blood (carboxyhemoglobin form, for crystallography) (P69905 whole entry, chain 1 of 2): as the sequence (P69905 whole entry, chain 1 of 2) above
Chain of human hemoglobin purified from donor blood (carboxyhemoglobin form, for crystallography) (P68871 whole entry, chain 2 of 2): as the sequence (P68871 whole entry) above

B1: hemoglobin-interacting domain 2 (HID2) of Shr, residues 169-294, wild type (domain or fragment)
chain: SGKNTANLSLITKLSQEDGAILFPEIDRYSDNKQIKALTQQITKVTVNGTVYKDLISDSVKDTNGWVSNMTGLHLGTKAFKDGENTIVISSKGFEDVTITVTKKDGQIHFVSAKQKQHVTAEDRQS
notes: also called WT; WT HID2; source: E. coli BL21(DE3), pET28b, purified (Ni-NTA, TEV cleavage, second Ni column, SEC Superdex-75)
Kd [1]: 25 µM
Kd [2]: 22 ± 0.12 µM
koff [2]: 0.65 ± 0.025 s⁻¹
kon [2]: 30000 ± 160 M⁻¹ s⁻¹
stoichiometry N [3]: 3 HID2 per Hb tetramer
binding result [4]: binds
